Reference: patent publication US20050170468A1 (published 2005)

Columns and labels:
Test in all cases: radiolabeled ligand binding assay on stably transfected BHK cells
[1] = target: T1, IL-20RB (full-length, on cells, without transfected IL-20RA) (human, UniProt Q6UXL0 30-311)
T1 construct: also called DIRS1; pDIRS1
T1 sequence: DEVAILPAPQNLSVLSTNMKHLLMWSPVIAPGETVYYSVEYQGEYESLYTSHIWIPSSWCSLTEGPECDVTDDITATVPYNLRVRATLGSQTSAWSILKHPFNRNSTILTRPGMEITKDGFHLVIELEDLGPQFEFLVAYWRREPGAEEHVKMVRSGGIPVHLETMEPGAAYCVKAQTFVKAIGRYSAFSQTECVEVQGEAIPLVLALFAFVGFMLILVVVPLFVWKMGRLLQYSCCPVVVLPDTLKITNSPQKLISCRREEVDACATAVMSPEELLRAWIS
Experimental: (§1) The specificity and affinity of IL-20 for its receptor was determined using BHK cells stably transfected with IL-20RA, IL-20RB or both receptor subunits. […] Binding of ¹²⁵I-labeled IL-20 was eliminated in the presence of 100-fold excess of unlabeled IL-20 but not with 100-fold excess of the unrelated cytokine, IL-21.

[2] = target: T2, IL-20RA (full-length, on cells, without transfected IL-20RB) (human, UniProt Q9UHF4 30-553)
T2 construct: Also used as the target of the anti-IL-20RA antibody on human lung tissue, the positive control 'known with IL-20RA expression'; also called ZcytoR7; BaF3/KZ134/IL-20RA only cells
T2 sequence: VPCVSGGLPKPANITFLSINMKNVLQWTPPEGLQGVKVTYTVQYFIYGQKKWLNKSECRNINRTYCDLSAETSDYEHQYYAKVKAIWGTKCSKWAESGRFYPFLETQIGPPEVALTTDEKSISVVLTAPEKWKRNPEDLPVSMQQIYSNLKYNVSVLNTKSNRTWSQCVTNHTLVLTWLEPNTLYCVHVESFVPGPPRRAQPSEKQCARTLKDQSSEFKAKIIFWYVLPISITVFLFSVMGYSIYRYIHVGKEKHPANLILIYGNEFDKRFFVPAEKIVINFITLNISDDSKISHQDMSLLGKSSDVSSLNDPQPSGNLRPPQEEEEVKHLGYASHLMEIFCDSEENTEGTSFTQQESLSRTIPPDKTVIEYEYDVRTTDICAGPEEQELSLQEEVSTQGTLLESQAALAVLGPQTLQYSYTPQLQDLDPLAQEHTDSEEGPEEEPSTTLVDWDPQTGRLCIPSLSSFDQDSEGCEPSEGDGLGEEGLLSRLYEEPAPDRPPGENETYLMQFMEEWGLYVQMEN
Experimental: as §1

[3] = target: T3, IL-20RA/IL-20RB heterodimeric receptor (on cells) (human, UniProt Q9UHF4 30-553; Q6UXL0 30-311)
T3 construct: Both subunits are on the same cell (COS, BHK or BaF3 transfectants, or HaCaT endogenously); also called IL-20 receptor; ZcytoR7/pDIRS1
T3 sequence 1: T2 sequence
T3 sequence 2: T1 sequence
Experimental: as §1

B1: IL-20 (ligand)
chain: LKTLNLGSCVIATNLQEIRNGFSDIRGSVQAKDGNIDIRILRRTESLQDTKPANRCCLLRHLLRLYLDRVFKNYQTPDHYTLRKISSLANSFLTIKKDLRLCHAHMTCHCGEEAMKKYSQILSHFEKLEPQAAVVKALGELDILLQWMEETE
modifications: biotin label in Example 6; 125I label in Example 10
notes: also called Zcyto10; biotinylated IL-20 protein
binding result [1]: no binding | binding result [2]: no binding | Kd [3]: ~1.5 nM
